Test [1] has as its target Pins Linker peptide (residues 427-445), pSer436, TMR-labelled (UniProt Q9VB22). Description: fluorescence polarisation. Particulars: read from the fitted curve at 20 µM Dlg-GK; parent: est. 0.11; read off a plot. On the technique in general: Polarisation of emitted light reports the rotation of a fluorescent probe.
The target of test [2] is Pins Linker peptide (residues 427-445), pSer436, TMR-labelled (Drosophila) (UniProt Q9VB22). Description: fluorescence polarisation; steady state anisotropy of 0.5 µM TMR-labelled Pins peptide (427-445) with increasing concentrations of Dlg constructs; 20 mM Tris pH 8, 100 mM NaCl, 1 mM DTT; nonlinear regression.
Test [3] addresses Pins Linker peptide (residues 427-445), unphosphorylated, TMR-labelled (Drosophila) (UniProt Q9VB22). Described as above.
The target in test [4] is T1, Dlg SH3-GK ΔHook (residues 598-975 without 679-766), as it stands in the fusion (Drosophila, UniProt P31007-5 598-975, Δ679-766).
T1 construct: Existed only joined to m11 on one chain; written apart for the pair seen in the crystal structure; also called Dlg GK^dom and its adjacent SH3 domain; GK^dom; source: E. coli BL21(DE3), purified (NiNTA, anion exchange, size exclusion), as part of the fusion m8
T1 sequence (looked up): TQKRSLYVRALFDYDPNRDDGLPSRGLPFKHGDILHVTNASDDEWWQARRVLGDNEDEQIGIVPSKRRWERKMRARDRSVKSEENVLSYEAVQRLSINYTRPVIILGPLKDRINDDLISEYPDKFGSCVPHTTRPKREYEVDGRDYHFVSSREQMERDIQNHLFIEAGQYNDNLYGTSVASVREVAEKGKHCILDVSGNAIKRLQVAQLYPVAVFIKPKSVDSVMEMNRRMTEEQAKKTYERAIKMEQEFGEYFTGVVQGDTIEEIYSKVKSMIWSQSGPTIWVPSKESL
Description: crystal structure; Dlg SH3-GK ΔHook and Pins Linker S436D joined on one chain; vapor diffusion, 2 M NaCl, 0.1 M NaOAc pH 4.6; data to 1.6 Å; one molecule in the asymmetric unit. Conditions: both partners purified.

For orientation: Kd means a measure of binding affinity in units of concentration. High values mean a looser complex, low ones a tighter complex.

Consider Dlg GK domain (isolated GK^dom) R822A, for which, in test [1], the response was found to be 0.083.
On to “Dlg SH3GK fused to Pins Linker without the phosphomimetic (from UniProt P31007-5 598-975; Q9VB22 411-460)”, for which, in test [2], the Kd was 300 nM.
On to Dlg GK domain (isolated GK^dom) Y824A, for which, in test [1], the response worked out at 0.11.
Turning to Dlg SH3-GK module (domain or fragment), the Kd in test [2] was found to be 300 nM.
Take Dlg GK domain (isolated GK^dom) Y855A: the response in test [1] was found to be 0.08.
On the same count and under the same terms, for Dlg GK domain (isolated GK^dom) Y831A the value was 0.017.
In turn, “ΔHook/Pins^S436D fusion protein (Dlg 598-975 without 679-766, fused to Pins 411-460 S436D) (from UniProt P31007-5 598-975; Q9VB22 411-460)” displayed a Kd in test [2] of 14000 nM.
As for “Dlg GK domain (isolated GK^dom) (domain or fragment)”, the Kd in test [3] was over 200000 nM; in test [2] it was 800 nM.

B1: Pins Linker (residues 411-460) S436D, as it stands in the fusion (domain or fragment, Drosophila, UniProt Q9VB22 411-460, looked up)
chain: DHSASGNQSDGSENSQGRMVRVRRQDMEQLDLIKITPDGKRMQEEKLRAQ
notes: Partner of Inscuteable (Pins), Linker, residues 411-460, phosphomimetic S436D; Existed only joined to m10 on one chain; written apart for the pair seen in the crystal structure; also called Pins^LINKER S436D; Pins^S436D; source: E. coli BL21(DE3), purified (NiNTA, anion exchange, size exclusion), as part of the fusion m8
As for B1, in test [4], the binding result is “binds”.

The record behind these values is paper PMC3335814, “Structure of an Enzyme-Derived Phosphoprotein Recognition Domain” (PLoS ONE, 2012).
